In publication PMC5436826, “The PET and LIM1-2 domains of testin contribute to intramolecular and homodimeric interactions” (PLoS ONE, 2017):
Blank lines part the entries; values can stand above or below the binder they belong to.

Assays:
[1] = biological target: T1, GST-FL (glutathione-S-transferase fused full length testin) (Homo sapiens (Human), UniProt Q9UGI8-1); experiment: GST pull-down with western blot
T1 chain: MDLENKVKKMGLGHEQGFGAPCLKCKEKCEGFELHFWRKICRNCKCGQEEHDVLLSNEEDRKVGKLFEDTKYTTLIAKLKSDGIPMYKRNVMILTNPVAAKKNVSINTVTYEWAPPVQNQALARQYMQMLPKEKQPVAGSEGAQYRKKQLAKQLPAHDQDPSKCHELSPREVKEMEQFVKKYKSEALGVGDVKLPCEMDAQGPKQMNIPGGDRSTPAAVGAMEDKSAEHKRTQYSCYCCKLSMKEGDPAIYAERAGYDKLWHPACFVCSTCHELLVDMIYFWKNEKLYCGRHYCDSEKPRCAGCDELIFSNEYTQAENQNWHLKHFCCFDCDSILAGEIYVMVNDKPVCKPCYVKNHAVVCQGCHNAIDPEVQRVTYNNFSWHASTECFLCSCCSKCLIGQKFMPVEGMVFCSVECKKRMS

[2] = biological target: the molecule itself; experiment: SEC; untagged FL (1.5 mg or as specified) on calibrated Superdex 200 HR 10/30, buffer A, 0.8 ml/min; dimer and monomer fractions re-run; monomer-dimer equilibrium
[3] = biological target: T2, untagged PET^52-233 of testin (amino acids 52-233) (human, UniProt Q9UGI8-1 52-233); experiment: supernatans depletion assay; GST-LIM1-3 on glutathione-sepharose beads at 0.31-50 μM incubated with 2.5 μM PET^52-233 in buffer A, 1 hour at 4°C; unbound PET^52-233 quantified on Coomassie gels; fit 'one site saturation + nonspecific'; settings: both partners purified
T2 construct: pGEX-2TK; source: E. coli BL21(DE3) pLYSstar, purified on glutathione sepharose as GST fusion, GST removed with thrombin
T2 sequence (looked up): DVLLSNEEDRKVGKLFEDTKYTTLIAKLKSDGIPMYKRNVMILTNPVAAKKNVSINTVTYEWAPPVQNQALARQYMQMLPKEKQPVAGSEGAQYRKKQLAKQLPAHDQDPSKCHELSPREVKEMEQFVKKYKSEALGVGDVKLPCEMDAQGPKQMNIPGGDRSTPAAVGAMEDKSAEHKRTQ

binding result [1]: binds
B1: ena/VASP-like protein (Evl), soluble untagged (protein)
chain: MSEQSICQARASVMVYDDTSKKWVPIKPGQQGFSRINIYHNTASNTFRVVGVKLQDQQVVINYSIVKGLKYNQATPTFHQWRDARQVYGLNFASKEEATTFSNAMLFALNIMNSQEGGPSSQRQVQNGPSPDEMDIQRRQVMEQHQQQRQESLERRTSATGPILPPGHPSSAASAPVSCSGPPPPPPPPVPPPPTGATPPPPPPLPAGGAQGSSHDESSMSGLAAAIAGAKLRRVQRPEDASGGSSPSGTSKSDANRASSGGGGGGLMEEMNKLLAKRRKAASQSDKPAEKKEDESQMEDPSTSPSPGTRAASQPPNSSEAGRKPWERSNSVEKPVSSILSRTPSVAKSPEAKSPLQSQPHSRMKPAGSVNDMALDAFDLDRMKQEILEEVVRELHKVKEEIIDAIRQELSGISTT

B2: untagged recombinant full length (FL) testin (natural protein, human, UniProt Q9UGI8-1 1-421, looked up)
chain: T1 chain
notes: testin, human, full length protein (residues 1-421), isoform 1 NP_056456.1; From pGEX-2TK; thrombin site between GST and FL; By SEC it is in a monomer-dimer equilibrium; also called non-tagged recombinant FL; source: E. coli BL21(DE3) pLYSstar, purified on glutathione sepharose as GST-FL, GST removed with thrombin
stoichiometry N [2]: 2

Kd [3]: 180 nM
B3: GST-LIM1-3 of testin (domain or fragment)
chain: YSCYCCKLSMKEGDPAIYAERAGYDKLWHPACFVCSTCHELLVDMIYFWKNEKLYCGRHYCDSEKPRCAGCDELIFSNEYTQAENQNWHLKHFCCFDCDSILAGEIYVMVNDKPVCKPCYVKNHAVVCQGCHNAIDPEVQRVTYNNFSWHASTECFLCSCCSKCLIGQKFMPVEGMVFCSVECKKRMS
modifications: zinc-bound LIM domains; exact start is only in Fig 1A, so limits are taken from the UniProt LIM1 start (234, adjacent to PET 52-233) to the C-terminus (421); GST omitted
